Assay results: the supplement of paper PMC7877785
± gives the uncertainty stated by the source.

Experiment: self-splicing fitness, log relative to wild type (ln ratio); higher = more splicing; Tetrahymena group I intron in knt gene, E. coli kanamycin selection, DiMSum; sequences stand for … in CUCUCU…GGAGGGAAAAGUUAUCAGGCAUGCACCUGGUAGCUAGUCUUUAAACCAAUAGAUUGCAUCGGUUUAAAAGGCAAGACCGUCAAAUUGCGGGAAAGGGGUCAACAGCCGUUCAGUACCAAGUCUCAGGGGAAACUUUGAGAUGGCCUUGCAAAGGGUAUGGUAAUAAGCUGACGGACAUGGUCCUAACCACGCAGCCAAGUCCUAAGUCAACAGAUCUUCUGUUGAUAUGGAUGCAGUUCACAGACUAAAUGUCGGUCGGGGAAGAUGUAUUCUUCUCAUAAGAUAUAGUCGGACCUCUCCUUAAUGGGAGCUAGCGGAUGAAGUGAUGCAACACUGGAGCCGCUGGGAACUAAUUUGUAUGCGAAAGUAUAUUGAUUAGUUUUGGAGUACUCGUGGUCG
In short: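 Pooled colonies went to amplicon sequencing on an Illumina HiSeq 2500 after six replicate transformations. The plates were LB agar with 100 μg/mL carbenicillin, 50 μM IPTG and 0.2% rhamnose, with or without 25 μg/mL kanamycin, incubated overnight at 37°C or 30°C. The E. coli BL21(DE3) library had all eight P1ex-region intron nucleotides randomised, the intron placed in the knt kanamycin-resistance gene on pET-22b(+). DiMSum fitness is the error-weighted combination of replicate fold changes, kanamycin against none, normalised to wild type.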

Sequence | self-splicing fitness (ln) (30 °C) | self-splicing fitness (ln) (37 °C)
GCCUAGCAAUAUUACGGGUC | -4.6 ± 0.36 | -2.89 ± 0.25
GCCUAGCAAUAUUACGGUAU | -0.978 ± 0.07 | -0.02 ± 0.08
GCCUAGCAAUAUUACGGUCG | -3.36 ± 0.2 | -2.5 ± 0.25
GCCUAGCAAUAUUACGGUCU | -1.12 ± 0.067 | -1.08 ± 0.078
GCCUAGCAAUAUUACGGUUA | -1.47 ± 0.11 | -0.443 ± 0.091
GCCUAGCAAUAUUACGUAAA | -1.1 ± 0.076 | -0.594 ± 0.093
GCCUAGCAAUAUUACGUACU | -0.867 ± 0.092 | -0.282 ± 0.093
GCCUAGCAAUAUUACGUCGG | -3.62 ± 0.19 | -2.93 ± 0.21
GCCUAGCAAUAUUACGUCGU | -0.763 ± 0.068 | -0.337 ± 0.069
GCGAAGCAAUAUUACGAACC | -1.67 ± 0.13 | -1.06 ± 0.15
GCGAAGCAAUAUUACGACCA | -0.945 ± 0.21 | -0.159 ± 0.38
GCGAAGCAAUAUUACGACUC | -0.212 ± 0.086 | 0.367 ± 0.1
GCGAAGCAAUAUUACGAGAC | -2.67 ± 0.26 | -1.46 ± 0.25
GCGAAGCAAUAUUACGAUAA | -2.27 ± 0.15 | -1.46 ± 0.2
GCGAAGCAAUAUUACGAUAU | -2.52 ± 0.13 | -1.22 ± 0.12
GCGAAGCAAUAUUACGAUCC | -1.64 ± 0.21 | -1.76 ± 0.3
GCGAAGCAAUAUUACGCCUA | -3.1 ± 0.45 | -2.39 ± 0.34
GCGAAGCAAUAUUACGCGAA | -2.2 ± 0.13 | -1.68 ± 0.14
GCGAAGCAAUAUUACGCGCA | -1.75 ± 0.36 | -1.11 ± 0.22
GCGAAGCAAUAUUACGCGUC | – | -1.65 ± 0.17
GCGAAGCAAUAUUACGCGUU | -2.54 ± 0.15 | -2.77 ± 0.27
GCGAAGCAAUAUUACGCUAG | -3.28 ± 0.26 | -0.964 ± 0.32
GCGAAGCAAUAUUACGCUCA | -1.48 ± 0.28 | -2.25 ± 0.33
GCGAAGCAAUAUUACGGAUC | -0.303 ± 0.071 | -0.659 ± 0.094
GCGAAGCAAUAUUACGGAUG | -1.48 ± 0.078 | -1.32 ± 0.11

Sequence | self-splicing fitness (ln) (30 °C) | self-splicing fitness (ln) (37 °C)
GCGAAGCAAUAUUACGGUCU | -1.71 ± 0.085 | -0.493 ± 0.089
GCGAAGCAAUAUUACGUAGC | -3.43 ± 0.23 | -2.22 ± 0.23
GCGAAGCAAUAUUACGUCGU | -3.79 ± 0.27 | -2.6 ± 0.28
GCGAAGCAAUAUUACGUUUA | -2.57 ± 0.14 | -1.32 ± 0.11
GCGCAGCAAUAUUACGAGAG | -3.03 ± 0.19 | -1.35 ± 0.1
GCGCAGCAAUAUUACGAUCC | -0.589 ± 0.15 | 0.707 ± 0.24
GCGCAGCAAUAUUACGAUCG | -1.61 ± 0.11 | 0.00803 ± 0.12
GCGCAGCAAUAUUACGCCUU | -2.92 ± 0.23 | 0.19 ± 0.14
GCGCAGCAAUAUUACGCGGA | -0.906 ± 0.096 | -0.269 ± 0.084
GCGCAGCAAUAUUACGGAAC | -1.37 ± 0.081 | -0.714 ± 0.098
GCGCAGCAAUAUUACGGAGG | -1.63 ± 0.12 | -0.473 ± 0.11
GCGCAGCAAUAUUACGGCCU | -0.201 ± 0.061 | 0.128 ± 0.072
GCGCAGCAAUAUUACGGGCA | -2.9 ± 0.14 | -1.24 ± 0.11
GCGCAGCAAUAUUACGGGGC | -3.33 ± 0.18 | -2.75 ± 0.38
GCGCAGCAAUAUUACGGUGC | -4.08 ± 0.25 | -2.13 ± 0.32
GCGCAGCAAUAUUACGUAAC | -1.3 ± 0.088 | -0.468 ± 0.12
GCGCAGCAAUAUUACGUCCG | -2.27 ± 0.11 | -0.478 ± 0.14
GCGCAGCAAUAUUACGUCGG | -1.4 ± 0.097 | -0.816 ± 0.13
GCGCAGCAAUAUUACGUGUC | -2.71 ± 0.19 | -2.83 ± 0.24
GCGCAGCAAUAUUACGUUCG | -1.7 ± 0.068 | -1.47 ± 0.096
GCGCAGCAAUAUUACGUUGU | -3.03 ± 0.13 | -1.24 ± 0.12
GCGGAGCAAUAUUACGAAUC | -2.17 ± 0.44 | –
GCGGAGCAAUAUUACGAGGG | -4.49 ± 0.36 | -2.93 ± 0.34
GCGGAGCAAUAUUACGAGUC | – | -1.09 ± 0.45
GCGGAGCAAUAUUACGCACU | -2.62 ± 0.14 | -2.79 ± 0.18

Sequence | self-splicing fitness (ln) (30 °C) | self-splicing fitness (ln) (37 °C)
GCGGAGCAAUAUUACGCCUA | -2.53 ± 0.46 | –
GCGGAGCAAUAUUACGGCUG | -2.93 ± 0.34 | –
GCGGAGCAAUAUUACGGGCG | -1.83 ± 0.13 | -1.21 ± 0.17
GCGGAGCAAUAUUACGUAGU | -2.12 ± 0.23 | 0.836 ± 0.34
GCGGAGCAAUAUUACGUGAG | -2.51 ± 0.12 | -2.01 ± 0.15
GCGUAGCAAUAUUACGAAAC | -0.751 ± 0.25 | -0.283 ± 0.4
GCGUAGCAAUAUUACGACCA | -1.52 ± 0.17 | -0.255 ± 0.16
GCGUAGCAAUAUUACGACCU | -0.0292 ± 0.22 | -0.575 ± 0.34
GCGUAGCAAUAUUACGACGU | -3.1 ± 0.16 | -1.45 ± 0.28
GCGUAGCAAUAUUACGAGAA | -1.15 ± 0.29 | -1.9 ± 0.2
GCGUAGCAAUAUUACGCAAC | -3.87 ± 0.18 | -2.33 ± 0.17
GCGUAGCAAUAUUACGCAGG | -3.66 ± 0.47 | -3.54 ± 0.33
GCGUAGCAAUAUUACGCAUG | – | -2.21 ± 0.23
GCGUAGCAAUAUUACGCGAU | -2.83 ± 0.26 | -2.31 ± 0.26
GCGUAGCAAUAUUACGCUGG | -2 ± 0.18 | -2.12 ± 0.32
GCGUAGCAAUAUUACGGACC | -2.2 ± 0.24 | -2.35 ± 0.35
GCGUAGCAAUAUUACGGAGC | -4.23 ± 0.28 | -3.03 ± 0.35
GCGUAGCAAUAUUACGGCAC | -0.32 ± 0.17 | -0.367 ± 0.22
GCGUAGCAAUAUUACGGCGU | -4.1 ± 0.37 | -2.07 ± 0.28
GCGUAGCAAUAUUACGGGAG | – | -2.28 ± 0.35
GCGUAGCAAUAUUACGGUCU | -0.587 ± 0.091 | -0.159 ± 0.1
GCGUAGCAAUAUUACGUCAA | – | -2.38 ± 0.32
GCGUAGCAAUAUUACGUGCC | -3.08 ± 0.25 | -2.83 ± 0.44
GCUAAGCAAUAUUACGAAUC | 0.136 ± 0.29 | -0.437 ± 0.35
GCUAAGCAAUAUUACGACAU | -0.734 ± 0.013 | -0.156 ± 0.033

Sequence | self-splicing fitness (ln) (30 °C) | self-splicing fitness (ln) (37 °C)
GCUAAGCAAUAUUACGACCC | -0.411 ± 0.11 | 0.239 ± 0.14
GCUAAGCAAUAUUACGACCU | -0.833 ± 0.1 | 0.599 ± 0.12
GCUAAGCAAUAUUACGACUG | -0.97 ± 0.1 | -0.946 ± 0.14
GCUAAGCAAUAUUACGAGCC | -3.9 ± 0.2 | -2.33 ± 0.33
GCUAAGCAAUAUUACGAGUC | -3.37 ± 0.21 | -1.96 ± 0.22
GCUAAGCAAUAUUACGAUAG | -1.25 ± 0.13 | -1.63 ± 0.17
GCUAAGCAAUAUUACGAUGA | -0.837 ± 0.09 | -0.253 ± 0.1
GCUAAGCAAUAUUACGCACA | -0.938 ± 0.098 | -0.709 ± 0.11
GCUAAGCAAUAUUACGCGGG | -3.54 ± 0.2 | -0.902 ± 0.13
GCUAAGCAAUAUUACGCUAG | -2.94 ± 0.35 | -3.64 ± 0.4
GCUAAGCAAUAUUACGCUGG | -4.23 ± 0.24 | -2.76 ± 0.26
GCUAAGCAAUAUUACGGCAA | -2.17 ± 0.21 | -0.981 ± 0.16
GCUAAGCAAUAUUACGGGUC | -2.55 ± 0.17 | -1.89 ± 0.15
GCUAAGCAAUAUUACGGGUU | -2.18 ± 0.09 | -1.28 ± 0.089
GCUAAGCAAUAUUACGGUAU | -0.915 ± 0.083 | -0.555 ± 0.1
GCUAAGCAAUAUUACGGUGA | -0.864 ± 0.073 | -0.0497 ± 0.077
GCUAAGCAAUAUUACGUAUC | -0.952 ± 0.082 | -0.277 ± 0.1
GCUAAGCAAUAUUACGUGGA | -2 ± 0.093 | -1.7 ± 0.092
GCUAAGCAAUAUUACGUGGU | -3.27 ± 0.19 | -2.5 ± 0.18
GCUAAGCAAUAUUACGUGUG | -1.22 ± 0.079 | -0.636 ± 0.098
GCUAAGCAAUAUUACGUUGU | -2.7 ± 0.11 | -2.43 ± 0.13
GCUCAGCAAUAUUACGAACC | -1.34 ± 0.22 | 0.355 ± 0.23
